Results on 5 molecules are retold here after patent US20180155693A1, “Method of Differentiating Stem Cells” (BioTime, Inc., priority 2008, published 2018).

The conditions of data set [1]: cited from earlier work.
Data set [2] has as its system ESI035, ESI049, ESI051 and HES-3. As to the kind of experiment: Effect of early growth factors, Pdx-1 RT-PCR. The format is cell-based, human. Particulars: day 18; early factors per Table 2; compared to cells only treated with Activin A; FIG. 5. The text has this:
The effect of early differentiation factors was examined by differentiating cell lines ESI035, ESI049, ESI051 and HES-3 in 24-well plates in six varying cultures and harvesting them for analysis using immunohistochemistry and Quantitative RT-PCR analysis on day 18 and day 30 of differentiation. The culture medium (1×Glutamax, 1×NEAA, 1×13-mercaptoethanol in RPMI 1640 (RPMI)) was supplemented with other factors summarized in table 2 below. The medium was changed every 2-3 days.
As the effect of FGF2 as an early growth factor varied depending on the cell line used, no conclusion was derived with regard to the effect of an early dose of FGF2 on the expression of Pdx-1.
Total RNA from hESC at various stages of differentiation was isolated using the Qiagen RNeasy kit […] according to the manufacturer's instructions. RNA was quantified by UV absorption. 1 to 5 μg of RNA was DNase I treated and converted to cDNA using M-MuIV reverse transcriptase (New England Biolabs) using random hexamer primers according to the manufacturer's instructions. Quantitative PCR (RT-PCR) was performed according to the manufacturer's instructions using a BioRad iCycler with approximately 50 ng cDNA per reaction containing 250 nM of each primer and 1×SYBR green master mix (Bio-Rad) and analyzed by Bio-RAD thermocycler.

The test system of data set [3] is human embryonic stem cells. As to the kind of experiment: Notch signaling inhibition, C-peptide positive cells by immunohistochemistry. The format is cell-based. Particulars: added day 9-18 of differentiation; cells fixed at day 21; FIG. 7. The procedure: In order to increase the percentage of Pdx-1 and C-peptide producing cells, the cells from Example 1 were rinsed twice with PBS and then cultured in a culture medium (2% 8-27, 1×Glutamax, 1×NEAA, 1×13-mercaptoethanol in RPMI 1640 (RPMI)) comprising 50 ng/ml Activin A and 50 ng/ml BMP4 for 3 days. The medium was then changed to a medium comprising 50 ng/ml Activin A in RPMI and incubated for 3 days. The cells were then cultured in a medium comprising 3 μM RA, 50 ng/ml FGF2, 1 μM SANT-1 and 10 mM Nicotinamide in RPMI for 6 days with the medium changed every 2-3 days. Notch signaling in the cells was then inhibited by the addition of Gamma Secretase Inhibitor X (DAPT) from day 9-18 of differentiation.
Plate-based immunohistochemistry was performed using standard techniques. Cells were fixed in 4% PFA in PBS for 30 min, washed with PBS and incubated in blocking solution consisting of 10% FCS and 0.1% Triton X-100 in PBS for 1 hr. Cells were incubated overnight at 4 ° C. with the primary antibody diluted in blocking solution. Examples of primary antibodies and their dilutions used include: guinea pig anti-Pdx-1 (1:10,000), rabbit anti-C-peptide (Linea, 1:1,000), goat anti-Sox17 (R & D systems, 1:100), goat anti-FoxA2 (R & D systems 1:100) and mouse anti-Oct4 (Santacruz, 1:100). […]

The subject of data set [4] is ESI035, ESI049 and ESI051. The data set can be described thus: Screen of maturation growth factors, immunohistochemistry for C-peptide and Pdx-1. The class given is cell-based, human. The settings on record: day 18. The text has this:
The effect of maturation growth factors was examined by differentiating cell lines ESI035, ESI049 and ES1051 from Example 1 in 96-well plates in two varying cultures and harvesting them for analysis using immunohistochemistry on day 18 of differentiation. The culture medium (1×Glutamax, 1×NEAA, 1×f3-mercaptoethanol in RPMI 1640 (RPMI)) were supplemented with other factors summarized in Table 4 below. The notable changes to the differentiation protocol used here compared to that used in Example 4 were the shortened period of endoderm induction and the addition of nicotinamide from day 6 of differentiation. The medium was changed every 2-3 days. A list of growth factors (G.F) were tested according to the protocol described in Table 4. […] There were added at two time points. […] None of the added growth factors had any consistent effect on cell viability, C-peptide expression and Pdx-1 expression. Plate-based immunohistochemistry was performed using standard techniques. Cells were fixed in 4% PFA in PBS for 30 min, washed with PBS and incubated in blocking solution consisting of 10% FCS and 0.1% Triton X-100 in PBS for 1 hr. Cells were incubated overnight at 4 ° C. with the primary antibody diluted in blocking solution. […]

Data set [5] relates to mix of cell lines, ESI017 and ESI035. As to the kind of experiment: Definitive endoderm time course, real-time PCR of Sox17 and FoxA2. The class given is cell-based, human. The method, then:
The effects of Activin A with and without BMP4 on the expression of markers of definitive endoderm were examined. Activin A and BMP4 were added to a mix of cell lines, ESI017 and ESI035, of Example 1 after the cells had been washed twice with PBS. Four groups of cells were then cultured in four different conditions:
1) 50 ng/ml Activin A and 50 ng/ml BMP4 in a culture medium (2% B-27, 1×Glutamax, 1×NEAA, 1×J3-mercaptoethanol in RPMI 1640 (RPMI)) for 3 days followed by treatment with Activin A (50 ng/ml) in RPMI.
2) 50 ng/ml Activin A and 50 ng/ml BMP4 in RPMI for about 6 hours followed by treatment with Activin A (50 ng/ml) in RPMI.
3) 50 ng/ml Activin A in RPMI.
4) 10% KOSR in RPMI (negative control).
The cells were cultured continuously and a sample harvested daily. The medium was changed every 2-3 days. Real-time PCR was performed as described in Example 9.
Total RNA from hESC at various stages of differentiation was isolated using the Qiagen RNeasy kit […] according to the manufacturer's instructions. RNA was quantified by UV absorption. […] Quantitative PCR (RT-PCR) was performed according to the manufacturer's instructions using a BioRad iCycler with approximately 50 ng cDNA per reaction containing 250 nM of each primer and 1×SYBR green master mix (Bio-Rad) and analyzed by Bio-RAD thermocycler.
(Quantitative PCR measures a nucleic acid by following its amplification.)

With C-peptide, the half-life result in data set [1] is reported as “about 30 minutes”.
As to FGF2: member of the FGF family, in data set [2], the “Pdx-1 expression (RT-PCR)” value is given as “did not result in the same effect on Pdx-1 expression in all four cell lines”.
Consider `CC(C)C[C@H](NC(=O)[C@H](Cc1ccccc1)C[C@@H](O)[C@H](Cc1ccccc1)NC(=O)OC(C)(C)C)C(=O)N[C@@H](Cc1ccccc1)C(N)=O` [Gamma Secretase Inhibitor X], for which the “Concentration resulting in a significant number of C-peptide positive cells” value in data set [3] was “over 10 μM”.

B1: BMP4: secreted polypeptide belonging to the BMP subgroup of the TGF-superfamily (protein, UniProt P12644 293-408, looked up)
Bone morphogenetic protein 4: SPKHHSQRARKKNKNCRRHSLYVDFSDVGWNDWIVAPPGYQAFYCHGDCPFPLADHLNSTNHAIVQTLVNSVNSSIPKACCVPTELSAISMLYLDEYDKVVLKNYQEMVVEGCGCR
For the molecule B1, the Pdx-1 positive cells result in data set [4] (BMP4 treated plates compared to plates not BMP4 treated) was “more Pdx-1 positive cells”. Also, the “frequency of C-peptide positive cells” value in data set [4] (initially cultured in medium comprising BMP4 vs Activin only) is given as “higher frequency of C-peptide positive cells”. For the same molecule, in data set [5] (addition of 50 ng/ml BMP4 to Activin A, up to day 10, FIG. 2B), the FoxA2 expression entry was “did not appear to greatly affect FoxA2 expression”.

B2: Activin A: protein of the TGF-superfamily (protein, UniProt P08476 311-426, looked up)
Inhibin beta A chain: GLECDGKVNICCKKQFFVSFKDIGWNDWIIAPSGYHANYCEGECPSHIAGTSGSSLSFHSTVINHYRMRGHSPFANLKSCCVPTKLRPMSMLYYDDGQNIIKKDIQNMIVEECGCS
modifications: Inhibin beta A chain
notes: protein of the TGF-superfamily
As for B2, the “expression of Sox17 mRNA” value in data set [5] (50 ng/ml each in RPMI, daily samples, FIG. 2A) is “weak expression of Sox17 until day 6”.
